In paper PMC11910319, “Inhibition of L-threonine dehydrogenase from Trypanosoma cruzi reduces glycine and acetate production and interferes with parasite growth and viability” (The Journal of Biological Chemistry, 2024) one finds IC50, stoichiometry N and Km data, which are given here for three molecules.

Data set [1] deals with T1, T. cruzi L-threonine dehydrogenase (TcTDH) (Trypanosoma cruzi, UniProt Q4CU39).
T1 construct: gene Tc00.1047053507923.10; recombinant TcTDH, codon-optimized gene in pET28a, His-tag purified
T1 sequence (Q4CU39 1-332): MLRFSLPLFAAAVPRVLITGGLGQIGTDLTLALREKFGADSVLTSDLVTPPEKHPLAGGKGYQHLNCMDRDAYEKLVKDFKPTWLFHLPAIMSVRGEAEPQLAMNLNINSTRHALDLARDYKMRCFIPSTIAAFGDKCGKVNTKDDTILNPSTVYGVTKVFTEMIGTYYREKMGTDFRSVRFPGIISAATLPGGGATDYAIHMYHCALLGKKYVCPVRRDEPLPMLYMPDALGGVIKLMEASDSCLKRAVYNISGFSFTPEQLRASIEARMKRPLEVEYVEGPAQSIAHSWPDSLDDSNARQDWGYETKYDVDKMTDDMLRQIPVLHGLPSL
Briefly: recombinant enzyme, diaphorase/resazurin coupled fluorescence assay; Ki by direct NADH fluorescence (Ki-Thr […], Ki-NAD+[…]). In kind it is biochemical.

Data set [2] has as its target Trypanosoma cruzi L-threonine dehydrogenase (TcTDH), recombinant wild type (Trypanosoma cruzi (CL Brener Esmeraldo-like strain)). Put plainly: SEC; data not shown; quaternary structure in solution. On the technique in general: Size exclusion chromatography separates by hydrodynamic size, large species first.
Substrate in the data set “purified protein”: C[C@@H](O)[C@H](N)C(=O)O
Put plainly: purified protein. Conditions: NAD+; K+ ([…] KCl). In kind it is biochemical, Trypanosoma cruzi.

Usually IC50 stands for the concentration needed to halve the response being measured. As usually defined, the stoichiometry N is a count of units in the complex or per binding partner. As a reminder, the Km is the concentration of substrate that gives half-maximal velocity.

With `CCOc1ccc(NC(=O)/C=C/c2ccc(CC)o2)cc1` [TCMDC-143160], the concentration for half-maximal inhibition (IC50) in data set [1] worked out at 3.5 µM.

Regarding “Trypanosoma cruzi L-threonine dehydrogenase (TcTDH), recombinant wild type (enzyme)”, the stoichiometry N in data set [2] was found to be 2.

B1: T. cruzi L-threonine dehydrogenase (TcTDH) (Trypanosoma cruzi strain CL Brener) (protein)
chain: MLRFSLPLFAAAVPRVLITGGLGQIGTDLTLALREKFGADSVLTSDLVTPPEKHPLAGGKGYQHLNCMDRDAYEKLVKDFKPTWLFHLPAIMSVRGEAEPQLAMNLNINSTRHALDLARDYKMRCFIPSTIAAFGDKCGKVNTKDDTILNPSTVYGVTKVFTEMIGTYYREKMGTDFRSVRFPGIISAATLPGGGATDYAIHMYHCALLGKKYVCPVRRDEPLPMLYMPDALGGVIKLMEASDSCLKRAVYNISGFSFTPEQLRASIEARMKRPLEVEYVEGPAQSIAHSWPDSLDDSNARQDWGYETKYDVDKMTDDMLRQIPVLHGLPSL
notes: recombinant TcTDH
With B1, the Km in the data set “purified protein” amounted to 6.6 mM.
